System: MS2 coat protein
Test: apparent KD of MS2 coat protein; designed switch direction (-1 OFF switch, 1 ON switch): -1; higher = weaker reporter binding
Method in brief: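 On Illumina chips, designed RNA switches with common flanks were made by stalled E. coli RNA polymerase. Titrations with SNAP-549-labelled MS2 coat protein, doubling from 0.7 or 1.5 nM to 3 µM, were done with no input, with 200 uM small-molecule ligand, or with an oligonucleotide input. Apparent KD is the median per design over clusters, from curve fits of normalised cluster fluorescence.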

[1] = input ligand: microRNA oligo, concentration not stated
[2] = Eterna round: R95, input ligand: microRNA oligo, concentration not stated

| Sequence | apparent KD of MS2 coat protein (input ligand: FMN 200 uM) [nM] | apparent KD of MS2 coat protein [1] [nM] | apparent KD of MS2 coat protein (input ligand: none) [nM] | apparent KD of MS2 coat protein [2] [nM] | apparent KD of MS2 coat protein (Eterna round: R95, input ligand: FMN 200 uM) [nM] | apparent KD of MS2 coat protein (Eterna round: R95, input ligand: none) [nM] |
| --- | --- | --- | --- | --- | --- | --- |
| UGAUCUAGCGGAGGAUAUACAUGAGGAUCACCCAUGUAGAUAACAUGACCGUAGUCGUGUAACGUGUAGAAGGCCGCUAGAUCU [JL ENG2 3.68] (Eterna round: R96, puzzle: Exclusion NG 2) | 104 | 17 | 23 | – | – | – |
| UGAUCUAGCGGAGGAUAUACAUGAGGAUCACCCAUGUAGAUAACAUGACCGUAGUCGUGUAUUGUGUAGAAGGCCGCUAGAUCU [JL ENG2 3.66] (Eterna round: R96, puzzle: Exclusion NG 2) | 40.8 | 14.3 | 18.8 | – | – | – |
| UGAUCUAGGCGAGGAUAUACAUGAGGAUCACCCAUGUAAUGGUGACAUGCGUACAUGUCACCUAUGUAGAAGGCGCCUAGAUCU [JL ENG2 3.55] (Eterna round: R96, puzzle: Exclusion NG 2) | 19.6 | 9 | 13 | – | – | – |
| UGCAGACGAGGAUAUGAUAAUUAAUACAUGAGGAUCACCCAUGUAAUACUGAUCCAUGGAUCAGAAGGCGUCUGCU [E5/4-A3] (Eterna round: R97, puzzle: Exclusion 5) | 20.2 | – | 13.7 | – | – | – |
| UGCCGGCAUGUAAGGAUAUCCAGGAGAUGUAGAUCGGAGAAGGUACAUGAGGAUCACCCAUGUAUUCCAAUAAA [BmEX4 C.19] (Eterna round: R97, puzzle: Brourd's mod of Exclusion 4) | 18 | – | 18.5 | – | – | – |
| UGCCGUUUAGGAUAUACAUGAGGAUCACCCAUGUGACACACAUAUUUUACAAAACCAUGUAGAAGGAAACGGCA [E3-1.0] (Eterna round: R96, puzzle: Exclusion 3) | 542 | 95.4 | 114 | – | – | – |
| UGCGCUUAAGGAUAUACUUCGGUGCGCCGAGAGUACGGCUAACUUGAGGAUCACCCAAGUAGAAGGUAAGAAAC [Esleberibe] (Eterna round: R97, puzzle: Exclusion 2) | 42 | – | 1270 | – | – | – |
| UGCGGUGAGGUAAGGAUAUUUGGGCAAUUACGCCCGGAGAAGGUACAUGAGGAUCACCCAUGUGCAGUAAGGCU [Eternabot (L2) Solution 18] (Eterna round: R97, puzzle: Brourd's mod of Exclusion 4) | 122 | – | 26.9 | – | – | – |
| UGCUACAUGAGGAUCACCCAUGUAAUGUGGGAUUCGUUAGGACAGGAUAUGAUUGUAUUGUUUUUUCAGAAGGGUCAUUACUUU [JR_ExcNG3_Sub011] (Eterna round: R96, puzzle: Exclusion NG 3) | 74.4 | 34.6 | 52.9 | – | – | – |
| UGCUGACAAGGAUAUACAUGAGGAUCACCCAUGUUGGUUCAGCGACGAUAGUCGCAAUGUAGAAGGUGUCAGCA [E3/9-C1] (Eterna round: R97, puzzle: Exclusion 3) | 135 | – | 236 | – | – | – |
| UGCUGACGAGGAUAUACAUGAGGAUCACCCAUGUUGGUUCAGCGACGAUAGUCGCAAUGUAGAAGGCGUCAGCU [E3/9-A3] (Eterna round: R97, puzzle: Exclusion 3) | 202 | – | 765 | – | – | – |
| UGGAUAACAGGAUAUACAUGAGGAUCACCCAUGUUUCCGGACGGAGACGAAUCCUAGAGUAGAAGGGUUAUCCC [Eternabot (Original) Solution 17] (Eterna round: R97, puzzle: Exclusion 3) | 388 | – | 362 | – | – | – |
| UGGGUCACAGGAUAUACAUGAGGAUCACCCAUGUCGUAUUUCGUGGCGGAGAGCUCGAGUAGAAGGGUGCAUCC [Malarala] (Eterna round: R96, puzzle: Exclusion 3) | 297 | 58.9 | 148 | – | – | – |
| UGGGUCACAGGAUAUACAUGAGGAUCACCCAUGUCGUAUUUCGUGGCGGAGAGCUCGAGUAGAAGGGUGCAUCC [Malarala] (puzzle: Exclusion 3) | – | – | – | 96.3 | – | – |
| UGGGUUCUCCAUAGAAGUAACAUGAGGAUCACCCAUGUAGGGCAAGUUUUUUGCUCGUCAUAGGUUGAGGGAUUGGA [JR_SV3TOV1_Sub017] (puzzle: Sensor v3, turn-off variant 1) | – | – | – | 441 | 968 | 634 |
| UGGUAACAUGAGGAUCACCCAUGUCAGGAUAUCAGUAAGAAGAGAUUAGAGUAGAAUAUGAGAAGGGACUAUAG [Excluse me! 1 - Jieux - Exclusion 1] (puzzle: Exclusion 1) | – | – | – | 35.8 | – | – |

| Sequence | apparent KD of MS2 coat protein (input ligand: FMN 200 uM) [nM] | apparent KD of MS2 coat protein [1] [nM] | apparent KD of MS2 coat protein (input ligand: none) [nM] | apparent KD of MS2 coat protein [2] [nM] | apparent KD of MS2 coat protein (Eterna round: R95, input ligand: FMN 200 uM) [nM] | apparent KD of MS2 coat protein (Eterna round: R95, input ligand: none) [nM] |
| --- | --- | --- | --- | --- | --- | --- |
| UGGUAACAUGAGGAUCACCCAUGUCAGGAUAUCAGUAAGAAUAGAUUAGAGUAGAAGAUGAGAAGGGACUAUAU [Excluse me! 6 - Jieux - Exclusion 1] (puzzle: Exclusion 1) | – | – | – | 33.8 | – | – |
| UGUAAGGCAGAGGAUAUGGUUACUAGACGAGUACCAGAAGGCUGCACAUGAGGAUCACCCAUGUGAAAUCCACU [Eternabot (L1) Solution 72] (Eterna round: R97, puzzle: Exclusion 6) | 80.7 | – | 34.7 | – | – | – |
| UGUAUACGAGGAUAUACAUGAGGAUCACCCAUGUGGACGUUGGAGAACGGCCCUCGUAGUAGAAGGCGUAUGAG [Eternabot (L2) Solution 53] (Eterna round: R97, puzzle: Exclusion 3) | 51.3 | – | 15.4 | – | – | – |
| UGUCAGAUGGUAGGAUAUCCAUAUUGAGUGACCCUUUCAUAACAUGAGGAUCACCCAUGUCGGUGGGAGAAGGGCCGUAUGGUG [salish99_ExNG02_R04_028] (Eterna round: R96, puzzle: Exclusion NG 2) | 53.7 | 21.9 | 33.8 | – | – | – |
| UGUCAGAUGGUAGGAUAUCCCUAUCGCGUGUCCCUUUCCUAACAUGAGGAUCACCCAUGUCGGUGGGAGAAGGGCCGUAUGGUG [salish99_ExNG02_R04_036] (Eterna round: R96, puzzle: Exclusion NG 2) | 15.7 | 13.6 | 15.4 | – | – | – |
| UGUCUUGCAGGAUAUACAUGAGGAUCACCCAUGUAUAUUGAUGAGGGAGAUCUACUAGGUAGAAGGGUAAGAGA [Eternabot (L2) Solution 59] (Eterna round: R97, puzzle: Exclusion 3) | 45 | – | 17.8 | – | – | – |
| UGUGCUUCAGGAUAUACGUGACGACCGUGAGGUCGAAGGUUACAUGAGGAUCACCCAUGUAGAAGGGAAGUACU [Mat - Exclusion 2 - JL Mod - D29] (Eterna round: R97, puzzle: Exclusion 2) | 66.8 | – | 33 | – | – | – |
| UGUGUGUCAGGAUAUGUGUGUGUGUGUGAAAGCGCGCGCGCGCAGAAGGGACAUGAGGAUCACCCAUGUGCGCG [-35.3, -34.3 kcal, A 20%, 6bis-6] (Eterna round: R97, puzzle: Exclusion 4) | 484 | – | 220 | – | – | – |
| UGUUAGAUGGUAGGAUAUCCAUAUCGAGUGACCCUUUCAUAACAUGAGGAUCACCCAUGUCGGUGGGAGAAGGGCCGUAUGGUG [salish99_ExNG02_R04_031] (Eterna round: R96, puzzle: Exclusion NG 2) | 18 | 15.8 | 22.7 | – | – | – |
| UGUUGUCGCGUAGGAUAUGAGGAUCACCCAUAUAAAGGAUAUGAAAAGAAGGUUCUGAGGAUUACCCAGAAGGACGGGACAACU [pwkr exNG2 2xF5 2xFMN.17] (Eterna round: R96, puzzle: Exclusion NG 2) | 207 | 35 | 48.7 | – | – | – |
| UGUUGUUACGCAGGAUAUGAGGAUCACCCAUAGAAGGAUAACGAAAGUGAAGGUCUGAGGAUUACCCAGAAGGGCGGGUUAACA [pwkr exNG2 2xF5 2xFMN.2] (Eterna round: R96, puzzle: Exclusion NG 2) | 294 | 74.2 | 92 | – | – | – |
| UGUUGUUACGCAGGAUAUUGUCAACAGGCAGUAGGAUAUCCGAAAGGAGAAGGACCGCCAACAGGCGAGAAGGGCGGGUUAACA [pwkr exNG2 2xF7 2xFMN.7] (Eterna round: R96, puzzle: Exclusion NG 2) | 369 | 167 | 323 | – | – | – |
| UGUUGUUACGUAGGAUAUCCACCAACAGGUGGAAGGAUAUGGAAACAGAAGGUUCGCCAACAGGCGGAGAAGGACGGGUUAACA [pwkr exNG2 2xF7 2xFMN.22] (Eterna round: R96, puzzle: Exclusion NG 2) | 42.5 | 11.5 | 32.3 | – | – | – |
| UUAAAUCAUGUAGGAUAUGCGUGGCGAAGCUAUGCAGAAGGACAUGAGGAUCACCCAUGUUCUAGCGUCUGCGUACAGAUGCUA [Mat - Exclusion NG 1 - Mod of JL - D76] (Eterna round: R96, puzzle: Exclusion NG 1) | 359 | 26.9 | 38.3 | – | – | – |
| UUAAAUCAUGUAGGAUAUGCGUGGGAAAACUAUGCAGAAGGACAUGAGGAUCACCCAUGUGCUUCCGUCUGAGAACAGACGGUA [Mat - Exclusion NG 1 - Mod of JL - D15] (Eterna round: R96, puzzle: Exclusion NG 1) | 226 | 76.1 | 87.8 | – | – | – |
| UUAAGUUCAGGAUAUGAUGAAUUAAACAUGAGGAUCACCCAUGUAGAUCCUGAAUUAACAUCAGAAGGGAAUAUUU [JL-ex5-4.52 Brourd mod] (Eterna round: R97, puzzle: Exclusion 5) | 24.4 | – | 13.5 | – | – | – |

From the supplement of paper PMC9170038
